Experiments:
Settings in all cases: both partners purified
[1] = biological target: T1, His–KPNB1 (UniProt Q14974 1-876); experiment: pull-down; His–KPNB1 immobilised on Ni-NTA agarose, GST fusion proteins added, 4°C overnight; washes with 20 mM sodium phosphate, 100 mM NaCl, 40 mM imidazole, 10% glycerol; SDS–PAGE and Coomassie Blue
T1 construct: KPNB1 (karyopherin β1, importin β1), full length, in a modified pET 30a vector; In the pull-down it was held on Ni-NTA by the His tag; also called full-length KPNB1; source: E. coli BL21 (DE3), purified (HisTrap HP)

[2] = biological target: T1, His–KPNB1; experiment: ITC; NFAT5 fragment at 1.5–1.75 mM titrated into 50 μM full-length KPNB1; 50 mM Tris-HCl pH 8.0, 150 mM NaCl; MicroCal PEAQ-ITC
[3] = biological target: T1, His–KPNB1; experiment: ITC; NFAT5_(171–253) at 600 μM titrated into 20 μM full-length KPNB1; 10 mM Na2HPO4, 1.8 mM KH2PO4, 2.7 mM KCl, pH 7.4, 150 mM NaCl; MicroCal PEAQ-ITC

T1 sequence (Q14974 whole entry, the tested form may be a part): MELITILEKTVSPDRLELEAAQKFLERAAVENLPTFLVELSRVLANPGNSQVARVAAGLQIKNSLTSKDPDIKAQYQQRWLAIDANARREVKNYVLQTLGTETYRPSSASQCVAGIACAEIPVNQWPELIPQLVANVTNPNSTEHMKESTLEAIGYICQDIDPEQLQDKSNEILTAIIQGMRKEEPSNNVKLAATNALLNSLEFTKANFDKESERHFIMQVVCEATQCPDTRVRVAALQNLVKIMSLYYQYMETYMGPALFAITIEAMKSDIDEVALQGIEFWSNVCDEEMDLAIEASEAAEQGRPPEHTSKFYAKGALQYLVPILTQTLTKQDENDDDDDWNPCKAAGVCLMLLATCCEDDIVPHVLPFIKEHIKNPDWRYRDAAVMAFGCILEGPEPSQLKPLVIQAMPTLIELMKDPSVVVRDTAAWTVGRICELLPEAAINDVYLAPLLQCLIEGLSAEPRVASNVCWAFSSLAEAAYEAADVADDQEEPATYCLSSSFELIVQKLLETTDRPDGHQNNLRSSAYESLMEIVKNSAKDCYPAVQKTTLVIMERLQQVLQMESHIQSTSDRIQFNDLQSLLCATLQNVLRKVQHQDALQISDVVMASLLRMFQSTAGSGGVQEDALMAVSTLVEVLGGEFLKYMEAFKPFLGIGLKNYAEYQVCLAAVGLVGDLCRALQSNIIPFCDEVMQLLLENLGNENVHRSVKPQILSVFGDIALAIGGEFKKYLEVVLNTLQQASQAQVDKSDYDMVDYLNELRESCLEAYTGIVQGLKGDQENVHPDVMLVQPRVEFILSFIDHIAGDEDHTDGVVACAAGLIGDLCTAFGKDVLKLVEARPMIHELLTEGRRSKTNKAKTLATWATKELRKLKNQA

Row | binding result [1] | Kd [2] [nM] | Binder | other results
1 | binds | – | SCSMWMEDSPSNFSNMSTSSYNDNTEVPRKSRKRNPKQRPGVKRRDCEES (domain or fragment, UniProt O94916 171-220, looked up, source: E. coli BL21 (DE3), purified (glutathione Sepharose); not shown: GST, N-terminal, kept) [GST–NFAT5_(171–220)] | –
2 | binds | – | GST–NFAT5_(190–250) (domain or fragment, UniProt O94916 190-250, looked up, NFAT5 residues 190-250, cloned at the C terminus of GST in pGEX-4T-1; source: E. coli BL21 (DE3), purified (glutathione Sepharose); not shown: GST, N-terminal, kept) SYNDNTEVPRKSRKRNPKQRPGVKRRDCEESNMDIFDADSAKAPHYVLSQLTTDNKGNSKA | –

Continued, binder first:

Row | Binder | binding result [1] | Kd [2] [nM] | other results
3 | GST–NFAT5_(171–250) (domain or fragment, UniProt O94916 171-250, looked up, also called NFAT5-NLS; source: E. coli BL21 (DE3), purified (glutathione Sepharose); not shown: GST, N-terminal, kept) SCSMWMEDSPSNFSNMSTSSYNDNTEVPRKSRKRNPKQRPGVKRRDCEESNMDIFDADSAKAPHYVLSQLTTDNKGNSKA | binds | – | –
4 | SSYNDNTEVPRKSRKRNPKQRPGVKRRD (domain or fragment, UniProt O94916 189-216, looked up, also called NFAT5-cNLS; source: E. coli BL21 (DE3), purified) [NFAT5_(189–216)] | – | ~1500 | –
5 | NFAT5_(151–216) (domain or fragment, UniProt O94916 151-216, looked up, source: E. coli BL21 (DE3), purified) LLDNSRMSCQDEGCGLESEQSCSMWMEDSPSNFSNMSTSSYNDNTEVPRKSRKRNPKQRPGVKRRD | – | ~1300 | –
6 | NFAT5_(171–253) (domain or fragment, UniProt O94916 171-253, looked up, source: E. coli BL21 (DE3), purified) SCSMWMEDSPSNFSNMSTSSYNDNTEVPRKSRKRNPKQRPGVKRRDCEESNMDIFDADSAKAPHYVLSQLTTDNKGNSKAGNG | – | – | Kd [3]: ~1200 nM

Reference: article PMC9377714, “Unconventional tonicity-regulated nuclear trafficking of NFAT5 mediated by KPNB1, XPOT and RUVBL2” (Journal of Cell Science, 2022)
